Assay results published in patent publication US6762290.

Columns and labels:
[1] = target: VEGFR2 (KDR) extracellular domain/Fc (Homo sapiens) (UniProt P35968); assay: filter; settings: 2'-F pyrimidines
[2] = target: VEGF receptors on HUVEC (VEGFR2/KDR) (Homo sapiens) (UniProt P35968); assay: competition; settings: 2'-F pyrimidines; inhibition of 125I-VEGF-165 binding to HUVEC
[3] = target: VEGFR1 (Flt-1) extracellular domain/Fc (UniProt P17948); assay: filter; settings: 2'-F pyrimidines; HBSMC, 37 C
[4] = target: c-Met/Fc (UniProt P08581); assay: filter; settings: 2'-F pyrimidines
c-Met/Fc, sequence (P08581 25-932): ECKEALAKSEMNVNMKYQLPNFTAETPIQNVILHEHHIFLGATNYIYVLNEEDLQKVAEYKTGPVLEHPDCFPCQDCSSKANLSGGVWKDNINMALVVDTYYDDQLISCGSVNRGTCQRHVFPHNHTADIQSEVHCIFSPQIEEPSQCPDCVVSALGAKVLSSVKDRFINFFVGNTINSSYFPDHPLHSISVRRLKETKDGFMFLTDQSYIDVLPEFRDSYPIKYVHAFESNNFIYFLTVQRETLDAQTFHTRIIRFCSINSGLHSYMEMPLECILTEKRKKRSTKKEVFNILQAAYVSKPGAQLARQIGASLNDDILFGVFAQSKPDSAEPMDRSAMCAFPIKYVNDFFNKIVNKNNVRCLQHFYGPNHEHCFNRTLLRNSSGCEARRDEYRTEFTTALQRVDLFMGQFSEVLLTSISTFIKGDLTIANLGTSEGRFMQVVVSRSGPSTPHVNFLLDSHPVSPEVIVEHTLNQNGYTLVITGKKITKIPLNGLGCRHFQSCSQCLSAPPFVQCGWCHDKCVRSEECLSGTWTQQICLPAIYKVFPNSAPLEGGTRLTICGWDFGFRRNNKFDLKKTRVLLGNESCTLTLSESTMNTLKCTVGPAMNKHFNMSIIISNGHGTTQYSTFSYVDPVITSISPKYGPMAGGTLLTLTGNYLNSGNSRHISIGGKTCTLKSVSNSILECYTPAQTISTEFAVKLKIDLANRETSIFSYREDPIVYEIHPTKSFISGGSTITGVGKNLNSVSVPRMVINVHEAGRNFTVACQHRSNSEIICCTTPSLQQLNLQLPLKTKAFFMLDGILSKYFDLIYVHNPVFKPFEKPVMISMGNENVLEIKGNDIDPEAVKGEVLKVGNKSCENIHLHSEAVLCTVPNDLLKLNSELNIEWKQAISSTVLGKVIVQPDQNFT

VEGFR2 (KDR) extracellular domain/Fc (Homo sapiens), sequence (P35968 20-764): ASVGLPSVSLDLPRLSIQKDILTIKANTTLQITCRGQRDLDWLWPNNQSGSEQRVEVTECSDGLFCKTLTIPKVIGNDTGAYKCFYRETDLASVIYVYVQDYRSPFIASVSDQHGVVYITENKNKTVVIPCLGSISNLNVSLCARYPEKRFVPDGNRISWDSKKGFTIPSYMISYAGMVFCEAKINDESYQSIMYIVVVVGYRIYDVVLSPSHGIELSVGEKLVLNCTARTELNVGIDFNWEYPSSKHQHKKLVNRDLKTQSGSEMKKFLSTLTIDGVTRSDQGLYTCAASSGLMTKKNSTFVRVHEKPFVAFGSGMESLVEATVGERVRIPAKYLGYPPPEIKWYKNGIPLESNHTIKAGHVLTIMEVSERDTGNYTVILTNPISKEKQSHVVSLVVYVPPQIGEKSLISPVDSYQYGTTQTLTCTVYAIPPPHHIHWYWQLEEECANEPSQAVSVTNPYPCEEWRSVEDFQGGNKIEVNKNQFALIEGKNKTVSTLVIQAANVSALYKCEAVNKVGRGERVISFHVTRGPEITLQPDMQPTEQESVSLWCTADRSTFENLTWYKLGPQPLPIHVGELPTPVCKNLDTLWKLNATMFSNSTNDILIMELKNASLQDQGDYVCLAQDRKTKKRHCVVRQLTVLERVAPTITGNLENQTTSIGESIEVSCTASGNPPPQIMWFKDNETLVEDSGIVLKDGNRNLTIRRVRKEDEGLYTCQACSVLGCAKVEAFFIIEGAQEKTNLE
VEGFR1 (Flt-1) extracellular domain/Fc, sequence (P17948 27-758): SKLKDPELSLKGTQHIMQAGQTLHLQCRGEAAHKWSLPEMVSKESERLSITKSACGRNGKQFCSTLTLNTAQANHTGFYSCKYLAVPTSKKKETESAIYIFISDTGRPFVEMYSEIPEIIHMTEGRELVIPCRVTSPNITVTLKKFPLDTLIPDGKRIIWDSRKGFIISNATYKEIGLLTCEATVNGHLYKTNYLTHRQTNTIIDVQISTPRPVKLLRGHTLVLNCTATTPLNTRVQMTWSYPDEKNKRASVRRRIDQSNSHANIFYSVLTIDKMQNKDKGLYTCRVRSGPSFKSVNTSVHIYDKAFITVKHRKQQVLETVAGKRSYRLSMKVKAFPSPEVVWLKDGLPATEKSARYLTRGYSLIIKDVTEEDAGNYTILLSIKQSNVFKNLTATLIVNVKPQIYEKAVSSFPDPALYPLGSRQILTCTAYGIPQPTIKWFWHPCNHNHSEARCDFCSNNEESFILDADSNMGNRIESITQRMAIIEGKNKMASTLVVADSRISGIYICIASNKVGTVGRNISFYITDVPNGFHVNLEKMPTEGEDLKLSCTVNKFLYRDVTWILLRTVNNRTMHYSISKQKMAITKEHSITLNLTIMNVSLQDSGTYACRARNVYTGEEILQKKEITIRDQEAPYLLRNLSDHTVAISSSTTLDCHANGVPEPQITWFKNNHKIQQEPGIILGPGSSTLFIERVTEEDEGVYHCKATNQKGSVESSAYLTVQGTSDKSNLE
VEGF receptors on HUVEC (VEGFR2/KDR) (Homo sapiens), sequence (P35968 20-1356): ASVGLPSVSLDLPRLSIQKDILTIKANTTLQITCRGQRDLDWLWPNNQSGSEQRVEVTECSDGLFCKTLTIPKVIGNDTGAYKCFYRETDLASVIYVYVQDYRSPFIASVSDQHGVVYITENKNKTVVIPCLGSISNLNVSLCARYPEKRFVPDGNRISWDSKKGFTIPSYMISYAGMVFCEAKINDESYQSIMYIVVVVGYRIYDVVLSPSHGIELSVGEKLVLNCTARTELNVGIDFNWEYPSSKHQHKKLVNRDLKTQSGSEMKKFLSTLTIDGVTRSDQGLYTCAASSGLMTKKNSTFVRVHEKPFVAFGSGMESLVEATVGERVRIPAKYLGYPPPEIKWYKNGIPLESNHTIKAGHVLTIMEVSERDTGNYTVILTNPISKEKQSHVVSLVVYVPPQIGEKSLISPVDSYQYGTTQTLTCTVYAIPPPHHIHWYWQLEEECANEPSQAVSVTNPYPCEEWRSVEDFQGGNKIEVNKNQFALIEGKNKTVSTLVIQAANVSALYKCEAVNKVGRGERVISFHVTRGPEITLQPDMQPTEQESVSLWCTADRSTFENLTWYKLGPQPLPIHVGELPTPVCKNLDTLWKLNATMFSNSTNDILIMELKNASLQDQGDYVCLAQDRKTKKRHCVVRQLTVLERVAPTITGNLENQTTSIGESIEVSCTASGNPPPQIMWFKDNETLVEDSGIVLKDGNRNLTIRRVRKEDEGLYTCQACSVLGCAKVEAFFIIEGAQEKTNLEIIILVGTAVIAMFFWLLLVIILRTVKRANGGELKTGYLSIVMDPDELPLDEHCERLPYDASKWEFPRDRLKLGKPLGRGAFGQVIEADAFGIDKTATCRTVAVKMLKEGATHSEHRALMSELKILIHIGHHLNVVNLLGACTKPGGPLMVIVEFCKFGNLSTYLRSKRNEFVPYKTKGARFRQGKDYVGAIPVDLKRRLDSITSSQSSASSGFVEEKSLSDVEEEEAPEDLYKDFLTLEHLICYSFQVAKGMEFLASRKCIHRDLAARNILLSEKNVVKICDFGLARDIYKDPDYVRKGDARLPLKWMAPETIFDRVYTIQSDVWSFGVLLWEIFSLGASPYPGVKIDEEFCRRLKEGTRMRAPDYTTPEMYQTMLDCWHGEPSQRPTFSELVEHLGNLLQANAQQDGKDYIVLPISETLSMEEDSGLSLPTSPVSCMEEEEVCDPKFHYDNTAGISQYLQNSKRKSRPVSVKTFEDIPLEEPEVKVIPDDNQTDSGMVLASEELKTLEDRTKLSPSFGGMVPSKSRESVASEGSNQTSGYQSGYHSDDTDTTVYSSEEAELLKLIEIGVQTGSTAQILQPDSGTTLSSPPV

For “GGGAGGACGAUGCGGACANAUAACACAGGGCCUGCUUGGAUCACACUGAUUGCGCCCAGACGACUCGCCCGA [K17]”, which Kd [1] is on record?
Its Kd is 0.24 nM.

And the IC50 [2]?
The IC50 was 163 nM.

Which Kd ([1]; 30N clone) does the source give for “GGGAGGACGAUGCGGAGCACUUGACCCACNACCAGAAAGCCAGCCCAGACGACUCGCCCGA [K6]” here?
Its Kd is 0.98 nM.

For “GGGAGGACGAUGCGGAUCAUACCGGGUCAUAACACCGNUCACGGGGCCUUNUCGUCAGACGACUCGCCCGA [K24]”, which Kd ([1]; circularly permuted family member) is on record?
The Kd was 0.97 nM.

“GGGAGGACGAUGCGGNNNNNNNNNNNNNNNNNNNNNNNNNNNNNNNNNNNNNNNNCAGACGACUCGCCCGA [40N7 starting random library (round 0)]” was tested. Which Kd ([1]; HBSMC, 37 C) did it give?
The Kd was 36 nM.

And the Kd ([1]; as printed, differs from 36 ± 3 nM in Table 1 legend)?
Its Kd is 361 nM.

What about the Kd [3] of the same sequence?
Its Kd is 0.2 nM.

What about the Kd ([4]; specificity control) of the same sequence?
Its Kd is 58 nM.

For “GGGAGGACGAUGCGGNNNNNNNNNNNNNNNNNNNNNNNNNNNNNNNNNNNNNNNNCAGACGACUCGCCCGA [Flt-1 SELEX round 5 pool]”, which Kd [3] is on record?
Its Kd is 0.093 nM.

With “GGGAGGACGAUGCGGNNNNNNNNNNNNNNNNNNNNNNNNNNNNNNNNNNNNNNNNCAGACGACUCGCCCGA [KDR SELEX round 2 pool]” as the sequence, how does the Kd ([1]; HBSMC, 37 C) read?
The Kd was 0.68 nM.

With “GGGAGGACGAUGCGGNNNNNNNNNNNNNNNNNNNNNNNNNNNNNNNNNNNNNNNNCAGACGACUCGCCCGA [KDR SELEX round 3 pool]” as the sequence, how does the Kd ([1]; HBSMC, 37 C) read?
The Kd was 0.8 nM.

For “GGGAGGACGAUGCGGNNNNNNNNNNNNNNNNNNNNNNNNNNNNNNNNNNNNNNNNCAGACGACUCGCCCGA [KDR SELEX round 4 pool]”, which Kd ([1]; HBSMC, 37 C) is on record?
The Kd was 0.581 nM.

With “GGGAGGACGAUGCGGNNNNNNNNNNNNNNNNNNNNNNNNNNNNNNNNNNNNNNNNCAGACGACUCGCCCGA [KDR SELEX round 5 pool]” as the sequence, how does the Kd ([1]; HBSMC, 37 C) read?
Its Kd is 0.83 nM.

And the Kd ([1]; comparison with cMet/Fc)?
Its Kd is 0.76 nM.

And the Kd ([4]; specificity control for Fc binding)?
Its Kd is 74 nM.

For “GGGAGGACGAUGCGGNNNNNNNNNNNNNNNNNNNNNNNNNNNNNNNNNNNNNNNNCAGACGACUCGCCCGA [KDR SELEX round 6 pool]”, which Kd ([1]; HBSMC (Mg, Ca), 37 C) is on record?
The Kd was 0.44 nM.
